In this test the target is IGF-1 receptor (IGF-1R) on primary mouse lung fibroblasts / in mouse lung (mouse) (UniProt Q60751). Put plainly: cell-based or functional assay.
Chain of IGF-1 receptor (IGF-1R) on primary mouse lung fibroblasts / in mouse lung (mouse) (Q60751 31-1373): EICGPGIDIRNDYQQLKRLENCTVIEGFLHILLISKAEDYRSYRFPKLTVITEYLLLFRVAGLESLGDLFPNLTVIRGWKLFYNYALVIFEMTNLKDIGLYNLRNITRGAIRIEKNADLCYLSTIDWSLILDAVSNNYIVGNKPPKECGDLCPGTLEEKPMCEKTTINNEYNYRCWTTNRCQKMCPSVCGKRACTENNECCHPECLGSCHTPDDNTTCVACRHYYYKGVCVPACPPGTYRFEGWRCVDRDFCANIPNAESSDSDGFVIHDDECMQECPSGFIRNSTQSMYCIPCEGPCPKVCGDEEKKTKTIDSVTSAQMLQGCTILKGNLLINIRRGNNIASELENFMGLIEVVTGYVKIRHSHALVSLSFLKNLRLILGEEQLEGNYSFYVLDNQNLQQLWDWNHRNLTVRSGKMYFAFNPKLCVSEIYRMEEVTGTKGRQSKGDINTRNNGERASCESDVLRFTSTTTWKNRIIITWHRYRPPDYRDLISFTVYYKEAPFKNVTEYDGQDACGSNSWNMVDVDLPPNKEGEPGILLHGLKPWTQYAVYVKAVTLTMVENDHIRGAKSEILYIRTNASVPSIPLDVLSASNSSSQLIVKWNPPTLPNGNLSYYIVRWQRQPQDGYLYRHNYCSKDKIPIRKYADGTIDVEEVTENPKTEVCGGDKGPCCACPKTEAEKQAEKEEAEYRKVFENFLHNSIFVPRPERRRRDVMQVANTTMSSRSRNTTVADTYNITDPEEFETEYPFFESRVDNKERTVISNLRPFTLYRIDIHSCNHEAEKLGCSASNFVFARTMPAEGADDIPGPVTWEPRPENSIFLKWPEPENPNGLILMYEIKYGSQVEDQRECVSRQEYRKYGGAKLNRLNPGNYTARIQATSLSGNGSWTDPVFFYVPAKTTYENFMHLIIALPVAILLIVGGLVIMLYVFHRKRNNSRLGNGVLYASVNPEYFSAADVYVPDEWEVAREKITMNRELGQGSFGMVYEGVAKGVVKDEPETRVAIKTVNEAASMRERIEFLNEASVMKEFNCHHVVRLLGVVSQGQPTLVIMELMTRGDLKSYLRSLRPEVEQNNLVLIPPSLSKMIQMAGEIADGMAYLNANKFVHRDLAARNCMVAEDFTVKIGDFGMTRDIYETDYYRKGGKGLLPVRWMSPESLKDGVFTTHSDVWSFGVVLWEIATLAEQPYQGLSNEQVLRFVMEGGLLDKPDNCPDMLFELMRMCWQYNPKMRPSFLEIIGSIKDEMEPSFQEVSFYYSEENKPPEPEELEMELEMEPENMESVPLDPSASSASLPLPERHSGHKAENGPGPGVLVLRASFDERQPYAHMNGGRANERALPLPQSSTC

With IGF-1 (R&D Systems) (ligand), the migration of mouse lung fibroblasts (transwell) stood at 1.8 fold.

The values are drawn from patent publication US20090016967A1.
